Measurements taken from the supplement of paper PMC9732359.
± gives the uncertainty stated by the source.

Assay: protein stability index of a GFP-peptide fusion (yeast GPS) (PSI 1-4); higher = more stable; sorted into four equal gates, so the index is relative within each strain
Summary of the method: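 Yeast carrying a pooled library were grown to mid-log phase in leucine-free medium. Each library plasmid expresses Cherry and has a tiled 17-residue yeast protein peptide fused downstream of GFP. Cells were sorted into four equal gates by GFP/Cherry ratio, and plasmids from each gate were PCR-amplified, Illumina-sequenced and assigned to strains by barcode. Summing, across gates, the read frequency times the gate number gave each peptide's protein stability index.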

Row | Sequence | protein stability index (doa10∆) | protein stability index (pdr5∆) | protein stability index (san1∆) | protein stability index (ubr1∆)
1 | ADYNGALLRVTKSKNKT [POP4] | 2.61 ± 0.066 | 2.14 ± 0.058 | 2.42 ± 0.077 | 2.36 ± 0.053
2 | VQARDNSQVFGVARIYA [RPS14B] | 2.39 ± 0.074 | 2.3 ± 0.054 | 2.78 ± 0.047 | 2.91 ± 0.059
3 | FGSRVMIAKEVKTSPDA [FAS1] | 3.37 ± 0.12 | 2.76 ± 0.26 | 2.81 ± 0.27 | 3.49 ± 0.2
4 | ALMKEKDIRSTLASLIR [RPC82] | 3.2 ± 0.27 | 2.85 ± 0.21 | 2.43 ± 0.24 | 3.13 ± 0.12
5 | VGSLVVKSSMGPAFRLY [RPL1A] | 3.07 ± 0.059 | 2.95 ± 0.055 | 3.14 ± 0.051 | 2.73 ± 0.055
6 | KKLATRPKCGDCGSALQ [RPL34A] | 2.52 ± 0.12 | 2.88 ± 0.16 | 2.31 ± 0.16 | 2.89 ± 0.12
7 | ASGKEVEKVATAVLSTT [RPN2] | 2.76 ± 0.14 | 3.47 ± 0.17 | – | –
8 | VGQLNKVVDQLFEKASV [RPN6] | 2.5 ± 0.063 | 2.51 ± 0.15 | 2.77 ± 0.076 | 2.5 ± 0.058
9 | SLDSCTAAFTAMICEAK [YJR042W/NUP85] | 2.79 ± 0.13 | 2.51 ± 0.11 | 2.99 ± 0.081 | 2.81 ± 0.096
10 | ATAALEIILKLCRNPLT [YJL039C/NUP192] | 2.03 ± 0.065 | 1.95 ± 0.063 | 1.25 ± 0.098 | 2.38 ± 0.059
11 | KGLQIYQSSVQEPFLNS [PRP8] | 2.89 ± 0.05 | 2.94 ± 0.044 | 2.76 ± 0.048 | 2.83 ± 0.04
12 | KGSRKSSKAATPDTKNF [SNF12] | 3 ± 0.063 | 2.87 ± 0.052 | 3 ± 0.058 | 2.98 ± 0.042
13 | GPVRENDILVLMESERE [RPS28A] | 2.61 ± 0.23 | 3.4 ± 0.083 | 3.26 ± 0.14 | 2.81 ± 0.092
14 | HSDRYHRVAENWRKQKG [RPL32] | – | 2.99 ± 0.2 | – | 2.6 ± 0.23
15 | FQQIQYENKQLYFPDDY [POP1] | 2.92 ± 0.11 | 2.5 ± 0.083 | 2.78 ± 0.12 | 2.73 ± 0.086
16 | LHLDYNFNLKPTKTLTT [PRP8] | 2.45 ± 0.034 | 2.7 ± 0.037 | 2.68 ± 0.039 | 2.5 ± 0.03
17 | QAVNNLIKTLSTLHMLG [RPP1] | 2.5 ± 0.053 | 2.45 ± 0.058 | 2.38 ± 0.071 | 2.47 ± 0.042
18 | QEITTNLENHFKKSKID [SCL1] | 3.12 ± 0.089 | 3.15 ± 0.08 | 3.1 ± 0.06 | 3.22 ± 0.063
19 | TLDREYITLKATFLKDD [QCR2] | 1.38 ± 0.065 | 1.44 ± 0.045 | 1.51 ± 0.1 | 1.5 ± 0.048
20 | ACEPTAEKFVPIDIFQI [SIR3] | 2.72 ± 0.092 | 2.71 ± 0.059 | 2.66 ± 0.07 | 2.98 ± 0.048

Row | Sequence | protein stability index (doa10∆) | protein stability index (pdr5∆) | protein stability index (san1∆) | protein stability index (ubr1∆)
21 | SKESWRYDWYQPSKVSS [RTT102] | 2.09 ± 0.097 | 2.33 ± 0.098 | 1.94 ± 0.074 | 1.96 ± 0.036
22 | LIMALLQFRPAPMYILD [SMC2] | 2.47 ± 0.15 | 1.12 ± 0.059 | 1.32 ± 0.26 | 1.06 ± 0.046
23 | TFDSSWNWAKQSLLSLY [FAS2] | 1.47 ± 0.066 | 1.3 ± 0.058 | 2.08 ± 0.15 | 1.58 ± 0.073
24 | LKGEIEDYPMSSEIKIY [SIR4] | 1.33 ± 0.15 | – | 3.25 ± 0.18 | 1.64 ± 0.2
25 | PKTELTKGDSTPVQPDL [YAR002W/NUP60] | 3.16 ± 0.055 | 3.14 ± 0.067 | 3.08 ± 0.072 | 3.1 ± 0.037
26 | VINIAKAHPNFPIALQW [FAS1] | 2.82 ± 0.1 | 2.88 ± 0.086 | 2.25 ± 0.091 | 2.23 ± 0.076
27 | VEKVATAVLSTTARAKA [RPN2] | 3 ± 0.12 | 3.32 ± 0.086 | 2.93 ± 0.13 | 3.1 ± 0.081
28 | NRSAYDSKNTPNVFDKD [YDL088C/ASM4] | 2.41 ± 0.1 | 2.72 ± 0.075 | 2.9 ± 0.074 | 2.92 ± 0.091
29 | HAIIIFGYPETIANSII [YMR153W/NUP53] | 1.91 ± 0.078 | 2.04 ± 0.065 | 2.17 ± 0.098 | 2.92 ± 0.046
30 | GKVVKNVLLLDSNGDFN [RRP46] | 3.35 ± 0.068 | 3.22 ± 0.058 | 3.29 ± 0.063 | 3.27 ± 0.043
31 | KNYSRPSTAIHTSPHQP [SIR4] | 2.86 ± 0.045 | 2.72 ± 0.044 | 2.65 ± 0.053 | 2.72 ± 0.044
32 | DNWRREFLKWTPNVNVL [ISW2] | 1.46 ± 0.098 | 2.42 ± 0.12 | – | 2.31 ± 0.07
33 | ASFQIVEEDHTLGNALR [RPC19] | 2.74 ± 0.21 | 2.22 ± 0.23 | – | 3.35 ± 0.26
34 | GAEDPKVLINDQLSTIS [SWI1] | 3.27 ± 0.18 | 3.24 ± 0.25 | 3.32 ± 0.21 | –
35 | SLKTKLNSNIRAGVTIP [SNF5] | 2.6 ± 0.077 | 2.72 ± 0.051 | 2.36 ± 0.066 | 2.63 ± 0.047
36 | DWIRFVSIRQNQYKLVF [RPL22B] | 1.37 ± 0.076 | 1.48 ± 0.041 | 1.26 ± 0.1 | 1.26 ± 0.055
37 | YFPEGYNNKVGVAASQG [SIR2] | 1.64 ± 0.055 | 2.03 ± 0.063 | 2.04 ± 0.16 | 1.81 ± 0.062
38 | GIDINTKIFNSVAEVFQ [YCG1] | 2.08 ± 0.1 | 2.93 ± 0.12 | 2.39 ± 0.12 | 2.86 ± 0.067
39 | LRIGRIEDVTPVPSDST [RPS14B] | 2.91 ± 0.037 | 2.98 ± 0.043 | 2.78 ± 0.04 | 2.92 ± 0.037
